Measured values: publication PMC7921410, “Structure of mammalian Mediator complex reveals Tail module architecture and interaction with a conserved core” (Nature Communications, 2021)

T1: MED17 (mouse (Mus musculus; endogenous in CH12), UniProt Q8VCD5 1-649)
T1 construct: MED17, Mus musculus, endogenous Head module scaffold subunit of Mediator; source: endogenous, CH12 mouse B lymphoma nuclear extract; immunopurified as part of Mediator (FLAG M2 agarose, FLAG peptide elution)
T1 sequence (looked up): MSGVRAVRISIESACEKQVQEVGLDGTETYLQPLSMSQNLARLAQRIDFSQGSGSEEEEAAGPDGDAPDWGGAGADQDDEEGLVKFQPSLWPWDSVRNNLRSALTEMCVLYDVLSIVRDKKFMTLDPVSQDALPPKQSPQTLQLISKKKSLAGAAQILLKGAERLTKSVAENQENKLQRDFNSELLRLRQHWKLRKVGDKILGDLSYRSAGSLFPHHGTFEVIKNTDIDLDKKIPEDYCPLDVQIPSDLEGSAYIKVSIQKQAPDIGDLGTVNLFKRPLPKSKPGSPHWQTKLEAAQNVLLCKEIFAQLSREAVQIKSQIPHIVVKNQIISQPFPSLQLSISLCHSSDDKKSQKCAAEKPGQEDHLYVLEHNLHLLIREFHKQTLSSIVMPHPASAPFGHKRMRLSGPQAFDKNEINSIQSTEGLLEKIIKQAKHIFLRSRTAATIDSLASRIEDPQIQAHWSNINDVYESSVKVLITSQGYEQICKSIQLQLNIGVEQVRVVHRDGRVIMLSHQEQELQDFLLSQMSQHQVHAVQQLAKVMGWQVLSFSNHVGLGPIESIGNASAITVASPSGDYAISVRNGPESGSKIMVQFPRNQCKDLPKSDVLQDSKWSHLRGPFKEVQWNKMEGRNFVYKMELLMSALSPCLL

T2: MED23 (mouse (Mus musculus; endogenous in CH12), UniProt Q80YQ2 1-1367)
T2 construct: MED23, Mus musculus, endogenous lower Tail subunit of Mediator; Model building started from the X-ray structure of human MED23 (PDB 6H02); source: endogenous, CH12 mouse B lymphoma nuclear extract; immunopurified as part of Mediator (FLAG M2 agarose, FLAG peptide elution)
T2 sequence (looked up): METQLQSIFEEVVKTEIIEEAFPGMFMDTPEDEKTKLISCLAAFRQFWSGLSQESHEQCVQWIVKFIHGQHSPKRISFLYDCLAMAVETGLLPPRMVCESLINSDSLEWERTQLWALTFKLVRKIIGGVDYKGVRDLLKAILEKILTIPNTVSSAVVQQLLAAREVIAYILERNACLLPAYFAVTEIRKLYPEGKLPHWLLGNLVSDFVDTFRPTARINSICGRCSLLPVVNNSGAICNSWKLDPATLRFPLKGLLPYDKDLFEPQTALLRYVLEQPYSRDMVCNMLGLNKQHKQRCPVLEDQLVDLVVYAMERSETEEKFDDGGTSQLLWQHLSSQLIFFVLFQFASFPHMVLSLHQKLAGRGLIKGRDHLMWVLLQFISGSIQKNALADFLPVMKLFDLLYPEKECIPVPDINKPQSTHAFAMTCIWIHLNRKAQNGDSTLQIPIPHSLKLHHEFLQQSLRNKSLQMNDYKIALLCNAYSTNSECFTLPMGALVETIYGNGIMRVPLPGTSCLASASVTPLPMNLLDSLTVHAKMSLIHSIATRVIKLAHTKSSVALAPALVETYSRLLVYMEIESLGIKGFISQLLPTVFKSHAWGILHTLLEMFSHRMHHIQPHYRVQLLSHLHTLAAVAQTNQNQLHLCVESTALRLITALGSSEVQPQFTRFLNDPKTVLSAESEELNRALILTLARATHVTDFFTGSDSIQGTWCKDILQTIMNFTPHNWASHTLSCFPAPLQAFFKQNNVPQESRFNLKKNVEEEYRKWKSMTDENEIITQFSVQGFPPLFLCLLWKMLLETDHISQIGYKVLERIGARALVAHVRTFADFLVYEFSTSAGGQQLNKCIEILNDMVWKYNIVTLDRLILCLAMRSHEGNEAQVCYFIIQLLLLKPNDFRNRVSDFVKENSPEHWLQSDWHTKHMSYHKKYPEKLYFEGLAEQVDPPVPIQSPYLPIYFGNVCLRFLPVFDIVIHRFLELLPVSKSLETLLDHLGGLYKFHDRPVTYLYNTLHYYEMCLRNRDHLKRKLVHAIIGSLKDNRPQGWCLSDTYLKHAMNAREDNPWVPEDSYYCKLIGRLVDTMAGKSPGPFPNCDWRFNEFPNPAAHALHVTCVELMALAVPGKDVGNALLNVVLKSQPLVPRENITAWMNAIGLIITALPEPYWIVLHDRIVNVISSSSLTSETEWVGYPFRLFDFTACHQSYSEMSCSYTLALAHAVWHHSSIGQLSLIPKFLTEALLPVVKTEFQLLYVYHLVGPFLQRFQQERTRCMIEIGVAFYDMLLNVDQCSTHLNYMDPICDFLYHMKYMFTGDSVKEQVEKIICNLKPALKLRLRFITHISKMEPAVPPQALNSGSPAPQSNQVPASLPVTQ

T3: MED24 (mouse (Mus musculus; endogenous in CH12), UniProt Q99K74 1-987)
T3 construct: MED24, Mus musculus, endogenous lower Tail subunit of Mediator; source: endogenous, CH12 mouse B lymphoma nuclear extract; immunopurified as part of Mediator (FLAG M2 agarose, FLAG peptide elution)
T3 sequence (looked up): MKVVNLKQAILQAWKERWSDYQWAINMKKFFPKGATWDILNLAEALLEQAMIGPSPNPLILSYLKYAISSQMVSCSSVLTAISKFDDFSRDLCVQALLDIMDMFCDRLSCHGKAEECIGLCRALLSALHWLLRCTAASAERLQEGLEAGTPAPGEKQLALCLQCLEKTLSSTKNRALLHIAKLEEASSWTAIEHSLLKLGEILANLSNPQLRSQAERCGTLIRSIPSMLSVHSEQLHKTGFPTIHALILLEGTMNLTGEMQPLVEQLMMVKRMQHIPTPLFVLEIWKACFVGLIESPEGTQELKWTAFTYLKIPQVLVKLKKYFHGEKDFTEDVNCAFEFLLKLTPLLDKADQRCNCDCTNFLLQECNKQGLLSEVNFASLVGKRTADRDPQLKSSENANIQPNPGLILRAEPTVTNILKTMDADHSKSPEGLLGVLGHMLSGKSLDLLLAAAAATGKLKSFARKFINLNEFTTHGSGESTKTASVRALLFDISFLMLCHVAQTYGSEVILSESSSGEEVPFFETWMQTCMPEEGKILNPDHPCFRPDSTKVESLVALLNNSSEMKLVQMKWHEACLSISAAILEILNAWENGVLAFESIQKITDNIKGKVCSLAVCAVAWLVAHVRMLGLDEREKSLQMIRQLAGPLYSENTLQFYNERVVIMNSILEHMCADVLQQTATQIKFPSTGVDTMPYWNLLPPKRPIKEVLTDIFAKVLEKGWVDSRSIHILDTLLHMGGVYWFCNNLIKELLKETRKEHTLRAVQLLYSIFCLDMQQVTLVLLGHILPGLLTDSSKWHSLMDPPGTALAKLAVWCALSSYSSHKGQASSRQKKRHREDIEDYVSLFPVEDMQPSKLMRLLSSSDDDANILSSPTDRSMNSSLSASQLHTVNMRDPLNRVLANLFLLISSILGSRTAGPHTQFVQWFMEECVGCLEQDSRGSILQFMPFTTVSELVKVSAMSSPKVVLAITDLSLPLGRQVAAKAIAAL

T4: MED27 (mouse (Mus musculus; endogenous in CH12), UniProt Q9DB40 1-311)
T4 construct: MED27, Mus musculus, endogenous upper Tail subunit of Mediator; source: endogenous, CH12 mouse B lymphoma nuclear extract; immunopurified as part of Mediator (FLAG M2 agarose, FLAG peptide elution)
T4 sequence (looked up): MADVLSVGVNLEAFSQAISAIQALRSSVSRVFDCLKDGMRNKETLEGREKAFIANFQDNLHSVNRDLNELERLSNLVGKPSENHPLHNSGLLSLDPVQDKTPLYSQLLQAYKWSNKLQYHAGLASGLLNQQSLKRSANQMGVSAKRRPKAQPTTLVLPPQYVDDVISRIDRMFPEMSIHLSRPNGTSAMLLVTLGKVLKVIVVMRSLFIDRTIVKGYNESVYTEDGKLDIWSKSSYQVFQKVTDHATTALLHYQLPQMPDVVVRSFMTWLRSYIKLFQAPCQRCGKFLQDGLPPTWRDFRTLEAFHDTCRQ

B1: MED22 (natural protein, mouse (Mus musculus; endogenous in CH12), UniProt Q62276 1-200, looked up)
chain: MAQQRALPQSKETLLQSYNKRLKDDIKSIMDNFTEIIKTAKIEDETQVSRATQGEQDNYEMHVRAANIVRAGESLMKLVSDLKQFLILNDFPSVNEAIDQRNQQLRALQEECDRKLITLRDEVSIDLYELEEEYYSSSSSLCEANDLPLCEAYWRLDLDADSADGLSAPLLASPETGAGPLQSAAPVHSHGGGPGPTEHT
notes: MED22, Mus musculus, endogenous Head module subunit of Mediator; source: endogenous, CH12 mouse B lymphoma nuclear extract; immunopurified as part of Mediator (FLAG M2 agarose, FLAG peptide elution)
B2: MED16 (natural protein, mouse (Mus musculus; endogenous in CH12), UniProt Q6PGF3 1-828, looked up)
chain: MDLAYVCEWEKWAKSTYCPSLPLACAWSCRNLIAFTTDLRNDDQDLTHMIHILDTEHPWEVHSVSSGHSEAITCLEWDQSGSRLLSADADGQIKCWSMADHLANSWESSVGSQVEGDPIVALSWLHNGVKLALHVEKSGASSFGEKFSRVKFSPSLTLFGGKPMEGWIAVTVSGLVTVSLLKPSGQVLTSTESLCRLRGRVALADIAFTGGGNIVVAAADGSSASPVKFYKVCVSVVSEKCRIDTEILPSLFMRCTTDPNRKDRFPAITHLKFLARDMSEQVLLCASSQTSSLVECWSLRKEGLPVNNIFQQISPVVGDKQPMILKWRILSATNDLDRVSAVALPKLPISLTNTDLKVASDTQFYPGLGLALAFQDGSVHMVHRLSLQTMAVFYSSAPRSLDEPALKRPRTTCPAVHFKAMQLSWTSLALVGIDNHGKLSMLRISPSLGHPLEPKLALQHLLFLLEYCMVTGYDWWDILLHVQPGMVQSLVERLHEEYTRQKPALQQVLSTRILAMKASLCKLSPCTVARVCDYHTKLFLMAITSTLKSLLRPHFLNTPDKSPGDRLAEICAKITDVDIDKVMINLKTEEFVLDMNTLQALQQLLQWVGDFVLYLLVSLPNQGSPLRPGHSFLRDGTSLGMLRELMVVIRIWGLLKPSCLPVYTATSDTQDSMSLLFRLLTKLWICCRDEGAASEPDEGLVDECCLLPSQLLVPNLDWLPASDGLVSRLQPKQPLRLRFGRAPTLPSSTSTLQLDGLTRAPGQPKIDHLRRLHLGAYPTEECKACTRCGCVTMLKSPNKTTAVTQWEQRWIKNCLCGGLWRRVPLSCS
notes: MED16, Mus musculus, endogenous lower Tail subunit of Mediator; source: endogenous, CH12 mouse B lymphoma nuclear extract; immunopurified as part of Mediator (FLAG M2 agarose, FLAG peptide elution)
B3: MED20 (natural protein, mouse (Mus musculus; endogenous in CH12), UniProt Q9R0X0 1-212, looked up)
chain: MGVTCVSQMPVAEGKSLQQTVELLTKKLEMLGAEKQGTFCVDCETYHTAASTLGSQGQAGKLMYVMHNSEYPLSCFALFENGPCLIADTNFDVLMVKLKGFFQSAKASKIETRGTRYQYCDFLVKVGTVTMGPSARGISVEVEYGPCVVASDCWSLLLEFLQSFLGSHAPGAPTVFGNRHDAVYGPADTMIQYMELFNKIRKQQQVPVAGIR
notes: MED20, Mus musculus, endogenous Head module subunit of Mediator; source: endogenous, CH12 mouse B lymphoma nuclear extract; immunopurified as part of Mediator (FLAG M2 agarose, FLAG peptide elution)

Columns and labels:
Experiment in all cases: cryo-EM structure; endogenous mouse Mediator immunopurified from CH12 nuclear extract through 3×FLAG-MED19 or 3×FLAG-MED25; eluted in 50 mM HEPES pH 7.9, 100 mM KCl, 5% glycerol, 1 mM EDTA, 0.005% NP-40; map at 4.0 Å overall, focused refinement of the MED1 and knob/hook ends (6-10 Å)
Conditions in all cases: both partners purified
MED17 = target: T1, MED17
MED23 = target: T2, MED23
MED24 = target: T3, MED24
MED27 = target: T4, MED27

| Binder | binding result (MED17) | binding result (MED23) | binding result (MED24) | binding result (MED27) |
| --- | --- | --- | --- | --- |
| B1 | binds | – | – | – |
| B2 | – | binds | binds | – |
| B3 | binds | – | – | binds |
